The target of experiment [1] is T1, recombinant human GPA ectodomain (human, UniProt P02724 20-91).
T1 construct: also called recombinant hGPA ECD; recGPA
T1 sequence: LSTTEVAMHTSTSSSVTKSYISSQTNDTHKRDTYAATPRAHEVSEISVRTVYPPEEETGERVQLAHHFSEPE
The experiment is described as follows: ELISA, rec hGPA ectodomain. A general note: In an ELISA, binding on a coated surface is turned into a signal by an enzyme label.

In experiment [2] the target is T2, purified human glycophorin A protein (Sigma, cat # G5017) (human, UniProt P02724 20-150).
T2 construct: mature; also called Sigma hGPA; Sigma GPA
T2 sequence (looked up): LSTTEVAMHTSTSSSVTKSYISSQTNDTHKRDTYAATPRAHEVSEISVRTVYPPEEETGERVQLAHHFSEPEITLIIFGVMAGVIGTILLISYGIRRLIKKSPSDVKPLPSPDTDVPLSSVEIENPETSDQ
Description: ELISA, native hGPA.

The target in experiment [3] is T3, human glycophorin A in the red blood cell membrane (human, UniProt P02724 20-150).
T3 construct: whole, on cells; used for intact RBC, isolated RBC membranes and transfected cells; the assay field tells which; also called GPA; hGPA
T3 sequence (looked up): T2 sequence (looked up)
The experiment is described as follows: ELISA, human RBC membranes.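 Further: antibodies bound to isolated human red blood cell membrane ghosts coated on 96-well plates, tested 1.5 h at room temperature, bound antibody quantified with a detection antibody.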
Description: In order to evaluate binding of antibodies to GPA in the native context of the red blood cell membrane we made use of isolated red blood cell membranes, also called red blood cells ghosts. These membranes are prepared by first isolating red blood cells from citrated whole blood. Citrated whole blood is layered on to Ficol and centrifuged at low speed for 20 minutes to pellet the red blood cells. The supernatant containing plasma and other blood cells is discarded and the red blood cell pellet is subsequently washed 3 times in 10 cell volumes of phosphate buffered saline (PBS). A 10 ml pellet of purified red blood cells is resuspended in 30 ml of cold low osmorality 20 mM phosphate buffer (pH7.4) and incubated for 30 mins to break open the RBC. After Centrifugation at 10,000 rpm for 30 min at 5° C. the hemoglobin containing supernatant is discarded. To the membrane pellet another 30 ml of 20 mM phosphate buffer is added and the sample centrifuged again at 10,000 rpm for 30 min at 5° C. to pellet the membrane fraction. This wash and centrifugation step is repeated another 4 times. The red blood cell membranes are then resuspended in 20 mL of PBS to achieve an equivalent of approximately 2.5E9 cells/mL and stored frozen at −20° C. Binding of antibodies to RBC ghost can be measured by ELISA in which the RBC ghost suspension (5×10⁶ in 100 ul PBS) was added to each well of flat bottom 96-well ELISA microtiter plates (2HB, Immunolon) and the plates incubated overnight at 4° C. The plates were blocked with Starting blocking buffer (Thermo Fisher) for 2 hours at room temperature (RT). Antibodies or other test molecules were added to each well and incubated for 1.5 hours at RT. After 4 washes 100 ul of an appropriate detection antibody was added to each well and incubated for 1 hour at RT. After 4 washes the detection antibody was measured using appropriate detection reagents.

Experiment [4] has as its target T4, native human glycophorin A protein (human, UniProt P02724 20-150).
T4 construct: mature; also called Hu-nat GPA
T4 sequence (looked up): T2 sequence (looked up)
The experiment is described as follows: ELISA, Fab on coated native human GPA.

Experiment [5] addresses T5, recombinant human glycophorin A ectodomain protein (human, UniProt P02724 20-91).
T5 construct: 72 amino acids of the extracellular region; also called Hu-rec GPA
T5 sequence: T1 sequence
Description: ELISA, Fab on coated recombinant human GPA ectodomain.

Experiment [6] has as its target T6, human glycophorin A on human red blood cells or red blood cell membranes (human, UniProt P02724 20-150).
T6 construct: whole, on cells; also called hRBC; human RBC membranes
T6 sequence (looked up): T2 sequence (looked up)
The experiment is described as follows: ELISA, Fab on coated human RBC membranes.
Description: These membranes are prepared by first isolating red blood cells from citrated whole blood. Citrated whole blood is layered on to Ficol and centrifuged at low speed for 20 minutes to pellet the red blood cells. The supernatant containing plasma and other blood cells is discarded and the red blood cell pellet is subsequently washed 3 times in 10 cell volumes of phosphate buffered saline (PBS). A 10 ml pellet of purified red blood cells is resuspended in 30 ml of cold low osmorality 20 mM phosphate buffer (pH7.4) and incubated for 30 mins to break open the RBC. After Centrifugation at 10,000 rpm for 30 min at 5° C. the hemoglobin containing supernatant is discarded. To the membrane pellet another 30 ml of 20 mM phosphate buffer is added and the sample centrifuged again at 10,000 rpm for 30 min at 5° C. to pellet the membrane fraction. This wash and centrifugation step is repeated another 4 times. The red blood cell membranes are then resuspended in 20 mL of PBS to achieve an equivalent of approximately 2.5E9 cells/mL and stored frozen at −20° C. Binding of antibodies to RBC ghost can be measured by ELISA in which the RBC ghost suspension (5×10⁶ in 100 ul PBS) was added to each well of flat bottom 96-well ELISA microtiter plates (2HB, Immunolon) and the plates incubated overnight at 4° C. The plates were blocked with Starting blocking buffer (Thermo Fisher) for 2 hours at room temperature (RT). Antibodies or other test molecules were added to each well and incubated for 1.5 hours at RT. After 4 washes 100 ul of an appropriate detection antibody was added to each well and incubated for 1 hour at RT. After 4 washes the detection antibody was measured using appropriate detection reagents.

For experiment [7], the target named is T7, Cynomolgus monkey recombinant glycophorin A ectodomain (Cynomolgus monkey).
T7 construct: extracellular domain
Description: ELISA, Fab on coated recombinant cyno GPA ectodomain.

Experiment [8] deals with T6, human glycophorin A on human red blood …. The experiment is described as follows: SPR (Biacore), Fab over human RBC membranes, 1:1 fit. (In general: Surface plasmon resonance follows binding to a sensor surface in real time, without labels.)
Description: (§1) Kinetic analysis of the antibody binding to human red blood cell membranes was also performed using surface plasmon resonance (SPR) using a Biacore instrument. In this assay membranes prepared from human red blood cells were attached to a L1 sensor matrix and antibodies were flowed over the RBC membranes.
Experiment [9] has the same target. The experiment is described as follows: SPR (Biacore), Fab on human RBC membranes.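 Further: human RBC membranes captured on an L1 sensor chip, Fab fragments passed over as analyte, binding kinetics read by surface plasmon resonance.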
Description: as §1
The binding kinetics of the affinity matured Fab antibodies was also measured.

Substitutions are numbered along the chain they refer to. Numbers in names are those of the source.
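Wherever Kd is given: human RBC membrane preparations captured on an L1 sensor surface, with antibody passed over them as analyte.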
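Wherever koff is given: human RBC membrane preparations captured on an L1 sensor surface, with antibody passed over them as analyte.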
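Wherever kon is given: human RBC membrane preparations captured on an L1 sensor surface, with antibody passed over them as analyte.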

B1: TPP-5355 (Fab, V domains shown)
VH: EVQLVQSGAEVKKPGASVKVSCKASGYTFTTYTIHWVRQAPGQGLEWIGYINPSSDYTRYNPKFKDRVTLTTDKSTSTAYMELRSLRSDDTAVYYCQTGTRDYWGQGTTVTVSS
VL: DIQLTQSPSFLSASVGDRVTITCSAASSVSYIYWFQQKPGKAPKLLIYSTSTLPSGVPSRFSGSGSGTEYTLTISSLQPEDFATYYCHQRNSFPYTFGQGTKLEIKR
notes: also called VL: (F95Y)
For B1, the entries for the “binding by ELISA relative to parental” value in [1], in experiment [2] and in experiment [3] were 1.35, 1.16 and 1.18, respectively.

B2: TPP-5357 (Fab, V domains shown)
VH: B1 VH
VL: DIQLTQSPSFLSASVGDRVTITCRAASSVSSYIYWFQQKPGKAPKLLIYSTSTLPSGVPSRFSGSGSGTEYTLTISSLQPEDFATYYCHQRNSFPFTFGQGTKLEIKR
notes: also called VL: (S24R)#
Turning to B2, the figures for the “binding by ELISA relative to parental” value in [1], in experiment [2] and in experiment [3] were 0.23, 0.23 and 0.37, respectively.

B3: TPP-5338, Hu6C12-24 Fab variant VH: (E1Q, I48M, L70M, T72R, K74T, R84S, D89E) (Fab, V domains shown)
VH: B1 VH with E1Q, I48M, L70M, T72R, K74T, R84S, D89E
VL: B1 VL with Y95F
notes: Built on the parental Fab TPP-4935
Take B3: the “binding in ELISA relative to parental Fab” value in experiment [4] was 0.5 relative to parental Fab; in [5], 0.4 relative to parental Fab; in experiment [6] it was 0.5 relative to parental Fab.

B4: TPP-5674, Hu6C12-24 Fab variant VH: (I48M, L70M) (Fab, V domains shown)
VH: B1 VH with I48M, L70M
VL: B1 VL with Y95F
notes: as for B3
Consider B4, for which the “binding in ELISA relative to parental Fab” value in experiment [4] was 1.4 relative to parental Fab; in [5] it was 1.5 relative to parental Fab; in experiment [7] it was 1.1 relative to parental Fab; in experiment [6], 0.7 relative to parental Fab.

B5: TPP-5701, Hu6C12-24 Fab variant VL: (S49A, P54Q, F95Y) (Fab, V domains shown)
VH: B1 VH
VL: B1 VL with S49A, P54Q
notes: as for B3
For B5, the “binding in ELISA relative to parental Fab” value in experiment [4] is 4.6 relative to parental Fab; in [5], 3.9 relative to parental Fab; in [7], 1 relative to parental Fab; in experiment [6] it was 4.7 relative to parental Fab.

B6: TPP-5695, Hu6C12-24 Fab variant VH: (L70M, T72R) (Fab, V domains shown)
VH: B1 VH with L70M, T72R
VL: B1 VL with Y95F
notes: as for B3
B6: the “binding in ELISA relative to parental Fab” value was 0.9 relative to parental Fab in [4], 1 relative to parental Fab in experiment [5], 1.1 relative to parental Fab in experiment [7] and 0.9 relative to parental Fab in experiment [6].

B7: TPP-5339, Hu6C12-24 Fab variant VH: (E1Q, I48M, L70M, T72R, K74T, R84S, D89E, Q97A, T98R) (Fab, V domains shown)
VH: B1 VH with E1Q, I48M, L70M, T72R, K74T, R84S, D89E, Q97A, T98R
VL: B1 VL with Y95F
notes: as for B3
Consider B7, for which the “binding in ELISA relative to parental Fab” value in experiment [4] and in experiment [5] was 0 relative to parental Fab throughout.

B8: TPP-5699, Hu6C12-24 Fab variant VL: (S49A, P54Q) (Fab, V domains shown)
VH: B1 VH
VL: B1 VL with S49A, P54Q, Y95F
notes: as for B3
Take B8: the “binding in ELISA relative to parental Fab” value in experiment [4] is 3.8 relative to parental Fab; in experiment [5] it was 3.2 relative to parental Fab; in experiment [7], 0.8 relative to parental Fab; in [6], 3.1 relative to parental Fab.

B9: TPP-5700, Hu6C12-24 Fab variant VL: (S24R, A26S, F95Y) (Fab, V domains shown)
VH: B1 VH
VL: B1 VL with S24R, A26S
notes: as for B3
B9: the “binding in ELISA relative to parental Fab” value was 2.5 relative to parental Fab in experiment [4], 2.4 relative to parental Fab in [5], 1.2 relative to parental Fab in experiment [7] and 2.5 relative to parental Fab in experiment [6].

B10: TPP-5704, Hu6C12-24 Fab variant VL: (N91D) (Fab, V domains shown)
VH: B1 VH
VL: B1 VL with N91D, Y95F
notes: as for B3
Take B10: the “binding in ELISA relative to parental Fab” value in experiment [4] was 1 relative to parental Fab; in experiment [5], 1.1 relative to parental Fab; in experiment [7], 1 relative to parental Fab; in experiment [6], 0.9 relative to parental Fab.

B11: TPP-5677, Hu6C12-24 Fab variant VH: (I48M, D66G, L70M) (Fab, V domains shown)
VH: B1 VH with I48M, D66G, L70M
VL: B1 VL with Y95F
notes: as for B3
For B11, the “binding in ELISA relative to parental Fab” value is 1.8 relative to parental Fab in [4], 1.8 relative to parental Fab in [5], 1.2 relative to parental Fab in experiment [7] and 0.8 relative to parental Fab in [6].

B12: TPP-5337, Hu6C12-24 Fab variant VH: (Q97A, T98R) (Fab, V domains shown)
VH: B1 VH with Q97A, T98R
VL: B1 VL with Y95F
notes: as for B3
Regarding B12, the “binding in ELISA relative to parental Fab” value in experiment [4] is 0.1 relative to parental Fab; in experiment [5] it was 0.1 relative to parental Fab; in experiment [6], 0.3 relative to parental Fab.

B13: TPP-5837, Hu6C12-24 Fab variant VL: (S24R, A26S, S49A, P54Q, F95Y); VH: (I48M, D66G) (Fab, V domains shown)
VH: B1 VH with I48M, D66G
VL: B1 VL with S24R, A26S, S49A, P54Q
notes: as for B3
Turning to B13, the “binding in ELISA relative to parental Fab” value is 5.2 relative to parental Fab in [4], 4.5 relative to parental Fab in experiment [5], 1.1 relative to parental Fab in [7] and 9.1 relative to parental Fab in experiment [6].

B14: TPP-5698, Hu6C12-24 Fab variant VL: (S24R, A26S) (Fab, V domains shown)
VH: B1 VH
VL: B1 VL with S24R, A26S, Y95F
notes: as for B3
As to B14, the “binding in ELISA relative to parental Fab” value is 1.6 relative to parental Fab in experiment [4], 1.7 relative to parental Fab in experiment [5], 1 relative to parental Fab in experiment [7] and 0.6 relative to parental Fab in experiment [6].

B15: TPP-5676, Hu6C12-24 Fab variant VH: (I48M, D66G) (Fab, V domains shown)
VH: B1 VH with I48M, D66G
VL: B1 VL with Y95F
notes: as for B3
Take B15: the “binding in ELISA relative to parental Fab” value was 1.3 relative to parental Fab in experiment [4], 1.5 relative to parental Fab in experiment [5], 1.1 relative to parental Fab in experiment [7] and 0.7 relative to parental Fab in [6].

B16: TPP-5696, Hu6C12-24 Fab variant VH: (D66G, L70M) (Fab, V domains shown)
VH: B1 VH with D66G, L70M
VL: B1 VL with Y95F
notes: as for B3
Consider B16, for which the “binding in ELISA relative to parental Fab” value in [4] was 1.3 relative to parental Fab; in experiment [5], 1.2 relative to parental Fab; in [7], 1.2 relative to parental Fab; in experiment [6], 1 relative to parental Fab.

B17: TPP-5675, Hu6C12-24 Fab variant VH: (I48M, L70M, T72R) (Fab, V domains shown)
VH: B1 VH with I48M, L70M, T72R
VL: B1 VL with Y95F
notes: as for B3
One may read the Kd as a measure of binding affinity in units of concentration. A word on the koff: it is the first-order rate constant of dissociation. The term kon denotes the rate constant with which the complex forms. As to B17, the “binding in ELISA relative to parental Fab” value in [4] was 0.8 relative to parental Fab; in experiment [5] it was 1.1 relative to parental Fab; in experiment [7] it was 1 relative to parental Fab; in [6] it was 0.7 relative to parental Fab. Besides, in experiment [8], the Kd turned out to be 87 nM. Also, the koff in experiment [8] came out at 0.036 s⁻¹. Further, the kon in [8] worked out at 420000 M⁻¹ s⁻¹.

B18: TPP-7791, affinity matured 6C12 Fab (Fab, V domains shown)
VH: B1 VH with T33A, I48M, D56G, D66H, L70M, T72R, Q97W
VL: DIQLTQSPSFLSASVGDRVTITCRASSSVRYIYWFQQKPGKAPKLLIYATSTLRSGVPSRFSGSGSGTEYTLTISSLQPEDFATYYCHQRNSFPYTFGQGTKLEIK
notes: Tested as Fab
Turning to B18, the binding result in experiment [9] is listed as “binds”.

B19: TPP-5697, Hu6C12-24 Fab variant VH: (D66G, L70M, T72R) (Fab, V domains shown)
VH: B1 VH with D66G, L70M, T72R
VL: B1 VL with Y95F
notes: as for B3
B19: the “binding in ELISA relative to parental Fab” value in experiment [4] is 1.2 relative to parental Fab; in [5] it was 1.3 relative to parental Fab; in experiment [7], 1.2 relative to parental Fab; in experiment [6] it was 1.1 relative to parental Fab.

B20: TPP-5703, Hu6C12-24 Fab variant VL: (N91S) (Fab, V domains shown)
VH: B1 VH
VL: B1 VL with N91S, Y95F
notes: as for B3
For the molecule B20, the “binding in ELISA relative to parental Fab” value is 2.1 relative to parental Fab in experiment [4], 1.1 relative to parental Fab in experiment [5], 0.9 relative to parental Fab in experiment [7] and 0.7 relative to parental Fab in [6].

B21: TPP-5356, Hu6C12-24 Fab variant VL: (F35Y, Y70F) (Fab, V domains shown)
VH: B1 VH
VL: B1 VL with F35Y, Y70F, Y95F
notes: as for B3
B21: the “binding in ELISA relative to parental Fab” value in experiment [4] was 0.7 relative to parental Fab; in experiment [5] it was 0.6 relative to parental Fab; in [6], 0.7 relative to parental Fab.

Values taken from patent publication US20190359687A1 (Bayer, published 2019).
